The target in assay [1] is T1, biotinylated CRH (human and mouse, UniProt P01143 145-185 (rat entry), not fully specified; biotin; which end is not stated for the result (NT-biotin and CT-biotin forms were used)).
T1 construct: also called biotin-CRH; CRH (NT biotin)
T1 peptide: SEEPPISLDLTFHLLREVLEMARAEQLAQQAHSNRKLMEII
The assay is described as follows: Octet in-tandem competition on captured CRH; row = 1st mAb; competitor (2nd mAb) PR301777. How it is done: (§1) SA sensors (Fortebio, Cat #18-5019) were hydrated in running buffer for 10 mins.
In general terms: Biolayer interferometry detects binding as a change in optical thickness at a sensor tip.

In assay [2] the target is T1, biotinylated CRH. The assay is described as follows: Octet in-tandem competition on captured CRH; row = 1st mAb; competitor (2nd mAb) PR302341-34. Here is the method: as §1
The target in assay [3] is T1, biotinylated CRH. The assay is described as follows: Octet in-tandem competition on captured CRH; row = 1st mAb; competitor (2nd mAb) PR005660. Here is the method:
as §1

Assay [4] deals with T2, CRH (C-Terminal Region, NT Biotin) (N-terminal Biotin-K; C-terminal NH2).
T2 construct: central region plus C-terminal region of CRH; also called C-Terminal CRH; C-Ter-CRH
T2 peptide: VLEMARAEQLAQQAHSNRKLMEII
The assay can be described thus: ELISA, CRH C-terminal region peptide (NT biotin). In outline: (§2)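 Plates were coated overnight at 4° C with streptavidin at 2 μg/ml in PBS to capture the biotinylated peptide. Bound antibody was detected with HRP-conjugated goat anti-human IgG (H+L), 1 hour at 37° C, then TMB for 15 minutes at room temperature; OD450 nm was read after stopping.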
On the technique in general: In an ELISA, binding on a coated surface is turned into a signal by an enzyme label.

Assay [5] concerns the target T3, N-Terminal CRH peptide (N-terminal region plus central region, CT biotin) (human and mouse, C-terminal K-Biotin).
T3 construct: also called N-Ter-CRH
T3 peptide: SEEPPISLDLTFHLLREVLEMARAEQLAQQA
The assay is described as follows: ELISA, N-Ter-CRH (CT-biotin) on streptavidin. In outline: as §2

The target of assay [6] is T1, biotinylated CRH. The assay is described as follows: ELISA, CRH (NT biotin). The method in brief: as §2
Assay [7] has as its target T4, human UCN1 peptide, biotinylated (human, UniProt P55089 83-122, biotin at N- or C-terminus).
T4 construct: also called hUCN1 (NT Biotin); hUCN1 (CT Biotin)
T4 peptide (looked up): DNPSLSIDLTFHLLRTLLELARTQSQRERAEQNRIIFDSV
The assay can be described thus: ELISA, hUCN1 (NT biotin). In outline:
as §2

Assay [8] has as its target T5, CRH (Central Region, NT Biotin) (N-terminal Biotin-K; C-terminal NH2).
T5 construct: also called Central CRH
T5 peptide: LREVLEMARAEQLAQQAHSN
The assay is described as follows: ELISA, CRH central region peptide (NT biotin). The method in brief: as §2

Assay [9] has as its target T1, biotinylated CRH. The assay can be described thus: Octet in-tandem competition on captured CRH; row = 1st mAb; competitor (2nd mAb) PR302334. How it is done: as §1
The target of assay [10] is T6, corticotropin-releasing hormone (CRH) peptide (human and mouse, UniProt P01143 145-185 (rat entry), not fully specified).
T6 peptide: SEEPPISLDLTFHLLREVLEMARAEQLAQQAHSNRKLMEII
The assay is described as follows: cell-based or functional assay.

The target of assay [11] is T7, human UCN2 peptide, biotinylated (human, UniProt Q96RP3 72-109, limits assumed, biotin at N- or C-terminus).
T7 construct: also called hUCN2 (NT Biotin); hUCN2 (CT Biotin)
T7 peptide (looked up): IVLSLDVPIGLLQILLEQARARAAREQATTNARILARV
The assay is described as follows: ELISA, hUCN2 (NT biotin) and (CT biotin).

In assay [12] the target is T8, human UCN3 peptide, biotinylated (human, UniProt Q969E3 120-157, biotin at N- or C-terminus).
T8 construct: also called hUCN3 (NT Biotin); hUCN3 (CT Biotin)
T8 peptide (looked up): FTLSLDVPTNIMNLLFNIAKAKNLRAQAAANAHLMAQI
The assay can be described thus: ELISA, hUCN3 (NT biotin) and (CT biotin).

Assay [13] deals with T1, biotinylated CRH. The assay is described as follows: Octet in-tandem competition on captured CRH; row = 1st mAb; competitor (2nd mAb) PR302309-8. Here is the method: as §1
Assay [14] deals with T1, biotinylated CRH. The assay can be described thus: ELISA, CRH (CT biotin). The method in brief:
as §2

The target of assay [15] is T1, biotinylated CRH. The assay is described as follows: Octet in-tandem competition on captured CRH; row = 1st mAb; competitor (2nd mAb) PR006669. How it is done:
as §1

In assay [16] the target is T1, biotinylated CRH. The assay is described as follows: Octet in-tandem competition on captured CRH; row = 1st mAb; competitor (2nd mAb) PR303394. How it is done: as §1
Assay [17] has as its target T9, CRH (Central Region, CT Biotin) (C-terminal K-Biotin).
T9 construct: also called Central CRH
T9 peptide: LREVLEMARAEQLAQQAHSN
The assay is described as follows: ELISA, CRH central region peptide (CT biotin). The method in brief:
as §2

Assay [18] addresses T6, corticotropin-releasing hormone (CRH) …. The assay can be described thus: cell-based or functional assay.
Assay [19] shares this target. The assay is described as follows: cell-based or functional assay.
Assay [20] addresses T1, biotinylated CRH. The assay can be described thus: CRH ELISA, compared with PR006669. Here is the method:
Streptavidin (Thermo, Cat: 21125) was diluted in PBS to a concentration of 2 μg/ml. 100 μl of diluted streptavidin was added per well to ELISA microplates, and the plates were incubated overnight at 4° C. […] Subsequently, plates were washed and incubated with HRP-conjugated goat anti-human IgG (H+L) antibody (Jackson, Cat: 109-035-088) at 37° C. for 1 hour. 100 μL of 3,3′,5,5′-tetramethylbenzidine (TMB) substrate (Biopanda, Cat: TMB-S-003) was added, and the plates were incubated at room temperature for 15 minutes. 100 μL of ELISA stopping solution (Solarbio, Cat #: C1058) was added to terminate the reaction, and the optical density at 450 nm (OD450 nm) was determined by an ELISA plate reader (Molecular Devices, Spectra max 384 plus).

In assay [21] the target is T1, biotinylated CRH. The assay is described as follows: Octet BLI, biotinylated CRH on SA sensors.

Where “and” joins values, the source holds several entries; their conditions need not be identical. Identical values can stand only once. Like-named read-outs stand apart in the source and are kept apart here.

B1: PR302309-8 (antibody, human IgG1, kappa, V domains shown)
VH: QIQLVQSGSELKKPGASVKVSCKASGYTFTNYGMNWVRQAPGQGLEWMGWINTYTGEPIYTDDFKGRFVFSLDTSVSTAYLQISSLKAEDTAVYYCSRSTMITTGGVFAYWGQGTLVTVSS
VL: DVVMTQSPLSLPVTLGQPASISCRSSQTIVHSDGNTYLEWYQQRPGQSPRLLIYKVSNRFSGVPDRFSGSGSGTDFTLKISRVEAEDLGVYYCFQGSHVPWTFGGGTKVEIKR
Take B1: the % Inhibition (in general, the change of the read-out against control, counted positive when it falls) in the assay with biotinylated CRH [1] is 80%; with biotinylated CRH [2], 74%; in the assay with biotinylated CRH [3] it was 76%; in the assay with biotinylated CRH [9], 65%; with biotinylated CRH [13] it was 87%; with biotinylated CRH [15], 76%. The “% Inhibition” value with biotinylated CRH [16] stood at 77%. The binding result in [4], in assay [8], in assay [11], in assay [12] and in assay [17] was “no binding (tested: 100 nM)” each time. Further, in assay [5], the EC50 (as a rule, the concentration giving half of the maximal effect) was 25 pM. For the same molecule, the EC50 (read off the curve) (as a rule, the concentration that produces a half-maximal response) is about 30 pM in the assay with biotinylated CRH [6], about 100 pM in [7] and about 30 pM in the assay with biotinylated CRH [14]. In addition, the “hCRHR1-Luc 0.5 nM CRH IC50” value in assay [10] is 1700 pM.

B2: PR302341-67 (antibody, human IgG1, kappa, V domains shown)
VH: QVQLVQSGAEVKKPGASVKVSCKASGYTFTDYFMKWVRQAPGQGLEWMGVINPNNGDIFYNQKFKGRVTMTVDKSTSTAYMELSSLRSEDTAVYYCARGTDRALFAYWGQGTLVTVSS
VL: DVVMTQTPLSSPVTLGQPASISCRSGQSIVHSDANTYLEWYQQRPGQPPRLLIYKVSNRFSGVPDRFSGSGAGTDFTLKISRVEAEDLGVYYCFQGSHIPWTFGGGTKVEIKR
On to B2, for which, in assay [18], the “IC50 (read off the curve), CRH-induced hCRHR1 luciferase reporter” value was about 200 pM.

B3: PR302334 (antibody, human IgG1, kappa, V domains shown)
VH: EVKLVESGGGLVKPGGSLKLSCAASGFTFSTYAMSWVRQTPEKRLEWVASIRSGGTTYYPDSVKGRFTISRDNARNILYLQMSSLRSEDTAIYYCTRGIDWGQGTLVTVSA
VL: NIVMTQTPKFLLVSAGDRITITCKASQSVNNDVAWYQQKPGQSPKLLIYYASNRYTGVPDRFTGSGYGTDFTFTISTVQAEDLAVYFCQQDYSSWTFGGGTNLEIKR
Take B3: the “% Inhibition” value turned out to be 90% in the assay with biotinylated CRH [1]; 88% with biotinylated CRH [2]; 92% with biotinylated CRH [3]; 95% with biotinylated CRH [9]; 91% with biotinylated CRH [13]; 93% with biotinylated CRH [15]. Besides, the “% Inhibition” value in the assay with biotinylated CRH [16] was found to be 89%. Also, the “hCRHR1-Luc 0.5 nM CRH IC50” value in assay [19] was 260 pM and 644 pM.

B4: PR006746 (antibody, human IgG1, kappa, V domains shown)
VH: EVQLVESGGGLVQPGGSLRLSCAASGFTFSDNWMSWVRQAPGKGLEWVANIKQDSSENYYVDSVKGRFTISRDNAKNSLYLQMNSLRAEDTAVYYCSRGLALWGWGQGTLVTVSS
VL: DIVMTHSPLSLPVTPGDPASISCRSSQSLLHSTGYNYLDWYLQKPGQSPQLLIYLGSNRASGVPDRFSGSGSGTDFTLKFIRVEAEDVGVYYCMQALQTPYTFGQGTKLEIKR
For B4, the binding result in the assay with biotinylated CRH [20] is “binds”.

B5: PR006143 (antibody, human IgG1, kappa, V domains shown)
VH: EVQLVESGGVLVQPGGSLRLSCAASGFTFSSYWMTWVRQAPGKGLEWVANIKQEGSEKYYVDSVKGRFTISRDNAKNSLFLQMNSLRAEDTAVYYCARTLIFDYWGQGTLVTVSS
VL: DIVMTQSPLSLPVTPGEPASISCRSSQSLLHSTGYHSLEWYLQKPGQSPQLLIYLGSNRASGVPDRFSGSGSGTDFTLKISRVEAEDVGIYYCMQTLQTPITFGQGTRLEIKR
In the case of B5, the binding result in the assay with biotinylated CRH [21] was “binds”.

B6: PR006145 (antibody, human IgG1, kappa, V domains shown)
VH: EVQLVESGGVLVQPGGSLRLSCAASGFTFSSYWMTWVRQAPGKGLEWVANIKQEGSEKYYVDSVKGRFTISRDNAKNSLFLQMNSLRAEDTAVYYCARTLIFDYWGQGTLVTVSS
VL: DIVMTQSPLSLPVTPGEPASISCRSSQSLLHSTGYSSLEWYLQKPGQSPQLLIYLGSNRASGVPDRFSGSGSGTDFTLKISRVEAEDVGIYYCMQTLQTPITFGQGTRLEIKR
Turning to B6, the binding result with biotinylated CRH [21] is recorded as “binds”.

The record behind these values is US20250197490A1 (HBM ALPHA THERAPEUTICS, published 2025).
